As a reminder, the Ki is the equilibrium dissociation constant of an inhibitor or competing ligand from its target. Lower therefore signals tighter binding.

Test [1] has as its target T1, rat GalR3 receptor (rat, UniProt O88626 1-370).
T1 construct: Full-length receptor (370 amino acids) expressed from pCR3.1 in COS-7 cells; The assay used membrane preparations of the transfected cells; also called rat type 3 galanin receptor; cellular receptors
T1 chain: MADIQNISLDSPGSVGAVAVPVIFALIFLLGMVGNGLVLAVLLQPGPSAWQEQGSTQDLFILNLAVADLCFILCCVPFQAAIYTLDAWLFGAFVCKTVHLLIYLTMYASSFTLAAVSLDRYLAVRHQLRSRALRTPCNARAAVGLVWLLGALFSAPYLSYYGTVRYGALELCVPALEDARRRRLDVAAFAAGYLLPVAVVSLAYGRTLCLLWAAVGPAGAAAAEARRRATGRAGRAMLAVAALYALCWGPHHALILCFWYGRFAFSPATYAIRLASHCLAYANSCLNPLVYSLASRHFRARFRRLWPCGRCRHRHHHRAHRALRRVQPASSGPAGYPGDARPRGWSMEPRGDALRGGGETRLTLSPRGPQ
Put plainly: competition with 0.3 nM 125I-porcine galanin on membranes of COS-7 cells transfected with rat GalR3; filtration; Cheng-Prusoff. As for the experimental part:
(§1) Binding of ¹²⁵I-porcine-galanin to the membrane preparations was performed in a buffer containing 25 mM Tris-Cl (pH7.4), 1% bovine serum albumin (w/v), 0.1% bacitracin, 2 μg/ml leupeptin and 10 mM MgCl₂. Ligand saturation plots were performed using 20 μg amounts of the membrane protein in a total volume of 200 μl using 3 μM cold galanin to determine nonspecific binding. Peptide competition studies were performed in a total volume of 200 μl, containing 20 μg of membrane protein and 0.3 nM ¹²⁵I-porcine galanin. Incubations were carried out at room temperature for 1 hour and were terminated by rapid vacuum filtration through MULTISCREEN FB (glass fiber B) Filter Plates (Millipore, Bedford, Mass.) which had been pre-treated with 0.30% polyethylenimine to prevent non-specific binding of the radioligand to the filter. The filters were then washed three times with 100 μl of PBS (pH7.4). All data were analyzed using non-linear regression software (Prism, GraphPad, San Diego, Calif.), and the Ki was calculated using the method of Cheng and Prusoff [Biochem. Pharmacol. 22:3099-3108 (1973)].
The curves shown indicate the fits of the data points by nonlinear regression for one-site binding.

Test [2] addresses T1, rat GalR3 receptor. Put plainly: radioligand binding to membranes of COS-7 cells transfected with rat GalR3. As to the method: as §1

No end group written: not given here. Where only a bound is given, the exact number is not on record here.

Molecule LLGPHAIDNHR [galanin(10-20)] had an inhibition constant Ki in test [1] above 1000 nM. On the same count and under the same terms, the figure for GWTLNSAGYLLGPHAIDNHRSFSDKHGLT (ligand, UniProt P10683 33-61, looked up, also called galanin itself) [rat galanin] is 1.2 nM.

B1: rat galanin(2-29) (peptide, UniProt P10683 34-61, looked up)
peptide: WTLNSAGYLLGPHAIDNHRSFSDKHGLT
notes: range 2-29; also called Rat galanin 92-29
Molecule B1 had a Ki in test [1] of 14 nM. Take TLNSAGYLLGPHAIDNHRSFSDKHGLT (peptide, UniProt P10683 35-61, looked up, range 3-29) [rat galanin(3-29)]: the Ki in test [1] was above 1000 nM.

B2: 125I-porcine galanin (ligand, UniProt P07480 33-61, looked up)
peptide: GWTLNSAGYLLGPHAIDNHRSFHDKYGLA
modifications: ends and bridges not checked; also: 125I radiolabel, residue not given here
notes: Bought radioligand; also called labeled galanin
In the case of B2, in test [2], the binding result is given as “binds”.

Values taken from US20090075297A1 (SCHERING, published 2009).
